B1: Aurora kinase C (Homo sapiens), Q9UQB9 (parent)
chain: MSSPRAVVQLGKAQPAGEELATANQTAQQPSSPAMRRLTVDDFEIGRPLGKGKFGNVYLARLKESHFIVALKVLFKSQIEKEGLEHQLRREIEIQAHLQHPNILRLYNYFHDARRVYLILEYAPRGELYKELQKSEKLDEQRTATIIEELADALTYCHDKKVIHRDIKPENLLLGFRGEVKIADFGWSVHTPSLRRKTMCGTLDYLPPEMIEGRTYDEKVDLWCIGVLCYELLVGYPPFESASHSETYRRILKVDVRFPLSMPLGARDLISRLLRYQPLERLPLAQILKHPWVQAHSRRVLPPCAQMAS

Variants of: B1
Details: with ince_human INCENP

Row | Variant | effect of a mutation on the interaction
1 | MSSPRAVVQLGKAQPAGEELATANQTAQQPSSPAMRRLTVDDFEIGRPLGKGKFGNVYLARLKESHFIVALKVLFKSQIEKEGLEHQLRREIEIQAHLQHPNILRLYNYFHDARRVYLILEYAPRGELYKELQKSEKLDEQRTATIIEELADALTYCHDKKVIHRDIKPENLLLGFRGEVKIADFGWSVHTPSLRRKAMCGTLDYLPPEMIEGRTYDEKVDLWCIGVLCYELLVGYPPFESASHSETYRRILKVDVRFPLSMPLGARDLISRLLRYQPLERLPLAQILKHPWVQAHSRRVLPPCAQMAS [T198A] | disrupting interaction
2 | MSSPRAVVQLGKAQPAGEELATANQTAQQPSSPAMRRLTVDDFEIGRPLGKGKFGNVYLARLKESHFIVALKVLFKSQIEKEGLEHQLRREIEIQAHLQHPNILRLYNYFHDARRVYLILEYAPRGELYKELQKSEKLDEQRTATIIEELADALTYCHDKKVIHRDIKPENLLLGFRGEVKIADFGWSVHTPSLRRKTMCGALDYLPPEMIEGRTYDEKVDLWCIGVLCYELLVGYPPFESASHSETYRRILKVDVRFPLSMPLGARDLISRLLRYQPLERLPLAQILKHPWVQAHSRRVLPPCAQMAS [T202A] | disrupting interaction

Variants of: B1
Details: with ince_human INCENP
Remark: another data set of the same source

Row | Variant | effect of a mutation on the interaction
3 | MSSPRAVVQLGKAQPAGEELATANQTAQQPSSPAMRRLTVDDFEIGRPLGKGKFGNVYLARLKESHFIVALKVLFRSQIEKEGLEHQLRREIEIQAHLQHPNILRLYNYFHDARRVYLILEYAPRGELYKELQKSEKLDEQRTATIIEELADALTYCHDKKVIHRDIKPENLLLGFRGEVKIADFGWSVHTPSLRRKTMCGTLDYLPPEMIEGRTYDEKVDLWCIGVLCYELLVGYPPFESASHSETYRRILKVDVRFPLSMPLGARDLISRLLRYQPLERLPLAQILKHPWVQAHSRRVLPPCAQMAS [K76R] | disrupting interaction

From IntAct's records for PubMed 27332895
